We go through three substances from PMC12797002, “Hydrophobic residues in the α‐synuclein NAC domain drive seed‐competent fibril formation and are targeted by peptide inhibitors” (The Febs Journal, 2025).

Series [1] relates to αSyn. Conditions: cited from earlier work. An excerpt: Building on our findings that the presence of residues 8–11 in NAC peptides, corresponding to αSyn 68–71, is necessary for efficient nucleation and aggregation, we investigated whether disrupting this hydrophobic region could inhibit full‐length αSyn aggregation. Truncating these residues abolished aggregation, and peptides containing them (e.g., NAC16, NAC11) aggregated rapidly (Fig. 1). To test whether targeting this site could suppress aggregation, we selected a previously validated inhibitor peptide based on the KISVRV sequence. This segment mimics the 70–75 region of αSyn, a hydrop ...

Series [2] concerns HEK293T αSyn (A53T) CFP/YFP biosensor cells. Description: Cell seeding assay (CFP/YFP inclusions, FRET flow cytometry). It is filed as cell-based. Conditions: 1 μM total or insoluble fraction, TurboFect, 72 h; Fig. 5C,D. An excerpt:
HEK293T αSyn (A53T) CFP/YFP biosensor cells (HEK293T parental line, RRID:CVCL_0063) were kindly provided by Dr. Marc Diamond from the University of Texas Southwestern Medical Center (Dallas, TX, USA). The cells were not further authenticated but were routinely tested and confirmed to be mycoplasma‐free using PCR‐based assays. The cells were maintained in complete growth media consisting of 88% Dulbecco's modified Eagle's growth medium (Lonza, Walkersville, MD, USA, Cat. # 12‐604F), supplemented with 10% (v/v) fetal bovine serum (Thermo Fisher Scientific Inc., Cat. # A5256701), 10 mM HEPES (Serana Europe GmbH, Brandenburg, Germany; Cat # BSL‐001‐100ML), 1% (v/v) GlutaMAX™ Supplement (Thermo Fisher Scientific Inc., Cat. # 35050061), and 1% (v/v) Penicillin–Streptomycin Solution (Thermo Fisher Scientific Inc., Cat. # 15140130). Cells were maintained at 37 °C in a humidified incubator with 5% CO2/atmospheric air. […]
Cells were imaged using a high‐content imaging system (Cell Voyager 7000S; Yokogawa, Tokyo, Japan) with a 20× objective. CFP/YFP inclusions of αSyn (A53T) were detected using a 488 nm laser line (Ex = 460–490 nm, Em = 500–550 nm), while Hoechst‐33 342‐stained nuclei were detected using the 405 nm laser line (Ex = 360–400 nm, Em = 410–480 nm). […]

Series [3] can be described thus: ANS assay of NAC peptide aggregation at different pH. To be noted: ANS fluorescence, 100 μM peptide, 40 μM ANS, 1× PBS, 1000 rpm, n = 3. In kind it is physicochemical. As for the experimental part:
A 40‐μL reaction mixture was prepared on ice containing 100 μM NAC peptides and 40 μM 8‐anilino‐1‐naphthalenesulfonic acid (ANS; Sigma‐Aldrich, Cat. # A1028‐5G) in 1× PBS at pH 4.2, 7.2, or 8.0. The aggregation kinetics were monitored on an EnSpire Multimode Plate Reader (Revvity) at 37 °C with a constant agitation of 1000 rpm. ANS fluorescence readings (Ex: 390 nm, Em: 475 nm) were recorded every 5–10 min for 48–72 h. The lag time of aggregation was determined by fitting a Boltzmann sigmoidal equation, as described in the previous section.

Series [4] in a line: ThT aggregation kinetics and AFM/TEM imaging of NAC peptides. It is filed as physicochemical. The procedure:
NAC peptides stored at −80 °C were thawed on ice and centrifuged at 12 100 g for 45 s. A reaction mixture (40 μL) was prepared on ice containing 100 μM NAC peptide, either alone or in combination with inhibitor peptides at a 1 : 2 molar ratio, along with 15 μM ThT (Sigma‐Aldrich, Burlington, MA, USA; Cat. # T3516‐5G) in 1× PBS (pH 7.2). This mixture was then dispensed into a clear‐bottom, black 384‐well plate (Revvity, Waltham, MA, USA), and the plate was sealed with a TopSealA‐PLUS (Revvity) to prevent evaporation.
The aggregation kinetics was monitored on an EnSpire Multimode Plate Reader (Revvity) at 37 °C with a constant agitation of 1000 rpm. To prevent condensation in the assay plate, the upper heater temperature in the plate reader was set to 2 °C higher than the lower heater temperature. ThT (Ex: 460–490 nm, Em: 500–550 nm) fluorescence readings were recorded every 5–10 min for 48–72 h. The aggregation lag time was determined by fitting a Boltzmann sigmoidal equation to the fluorescence data in OriginPro 2024 (OriginLab Corporation, Northampton, MA, USA).
NAC peptide aggregates, collected after 48 h of the aggregation assay, were dropped onto a freshly cleaved 10 mm AFM mica disc (Ted Pella, Inc., Redding, CA, USA) and air‐dried for 10 min at room temperature. The mica discs were washed five times with deionized water and then dried for 10–15 min at room temperature. AFM imaging was performed as described, using the […] AIR probe (tip radius: 2 nm, spring constant: 0.4 N/m).
Samples were dropped on glow‐discharged carbon‐coated copper grids and negatively stained with 2% uranyl acetate. Electron microscopy was performed on a Tecnai G2 F20 microscope (FEI Technologies, Hillsboro, OR, USA) with an Eagle 4K CCD camera (FEI Technologies) or a CM100 TWIN Transmission Electron Microscope (Philips, Amsterdam, Netherlands) equipped with a side‐mounted Veleta Camera (Olympus, Tokyo, Japan) and processed in the iTEM software suite (Olympus). After bringing the images to 2048 × 2048 pixels, the pixel size at the specimen level was 1.14 nm. Approximately 20 micrographs of each specimen were recorded and evaluated.

A short description of series [5]: UV-Vis spectrophotometric analysis of soluble and insoluble fractions. It is filed as physicochemical. To be noted: 100 μM peptide, 48 h incubation without ThT, 65 000 g 1 h, 1× PBS pH 7.2, spectra 400–600 nm; means of 3 replicates. The procedure:
To fractionate aggregated samples (recombinant αSyn or NAC peptides), 20% of the aggregation mixture was set aside as the ‘total fraction’. The remaining sample was centrifuged at room temperature at 65 000 g for 1 h. The supernatant was collected as the ‘soluble fraction’ and transferred to a fresh tube. The pellet was resuspended in 80 μL of 1× PBS (pH 7.2) and centrifuged at 65 000 g for 1 h. After removing the supernatant, the pellet was resuspended in 8 μL of 1× PBS (pH 7.2), yielding a 10× concentrated ‘insoluble fraction’.
NAC peptides (100 μM) were incubated without ThT for 48 h to allow aggregation. The resulting mixtures were centrifuged at 65 000 g for 1 h to separate the soluble and insoluble fractions, as outlined above. Insoluble fractions were resuspended in an equal volume of 1× PBS (pH 7.2) as the soluble fractions. UV–Vis absorption spectra were recorded from 400 to 600 nm using an EnSpire Multimode Plate Reader (Revvity) with a resolution of 10 nm.

Series [6] concerns the target T1, monomeric αSyn (Homo sapiens, UniProt P37840, A53T).
T1 construct: made in house
Nature of the series: In vitro seeding assay with preformed fibrils (ThT, dot blot, Coomassie gel). In kind it is biochemical. The procedure:
For the in vitro seeding assay, αSyn (100 μM), NAC35 (100 μM), NAC16 (200 μM), and NAC11 (200 μM) peptides were aggregated without ThT for 72–96 h. Fibril formation was confirmed by mixing 10 μL of the aggregated sample with 15 μM ThT and measuring fluorescence using an EnSpire Multimode Plate Reader (Revvity). Aggregates were then centrifuged to separate insoluble fractions as described above.
αSyn (100 μM) was incubated with 25 μM insoluble fractions (preformed fibrils) of αSyn, NAC35, NAC16, and NAC11 in a 100–150 μL volume per well of a 96‐well ViewPlate in the presence of 50 μM ThT. The aggregation kinetics were monitored on an EnSpire Multimode Plate Reader (Revvity) at 37 °C with a constant agitation of 1000 rpm. ThT fluorescence was recorded every 5–10 min for over 60–65 h. After aggregation, the contents of each well were collected, and insoluble fractions were isolated by centrifugation. These fractions were subsequently analyzed using dot blot analysis and Coomassie gel staining.
The samples were mixed with 2× Laemmli buffer [62.5 mM Tris/HCl (pH 6.8), 25% (w/v) glycerol, 2% SDS, and 0.01% Bromophenol Blue, supplemented with 5% (v/v) 2‐mercaptoethanol] and boiled at 95 °C for 5 min. The samples were then subjected to electrophoresis using Mini‐PROTEAN TGX 4–20% Precast gels (Bio‐Rad, Hercules, CA, USA, Cat. # 4561095) in Tris/glycine/SDS running buffer (Bio‐Rad). Gels were fixed in 50% methanol (v/v) and 10% acetic acid (v/v) for 1 h, stained with Coomassie Brilliant Blue R‐250 Staining Solution (Bio‐Rad, Cat. # 1610436EDU) for 12 h at 4 °C with gentle agitation, and destained in deionized water. Gel images were acquired using a ChemiDoc MP imaging system (Bio‐Rad), and densitometry was performed using the IMAGEJ software (RRID: SCR_003070; Bethesda, MD, USA).
Five μL of the sample (2.5 μL first, allowed to dry completely, then another 2.5 μL) was spotted onto a nitrocellulose membrane (Bio‐Rad, Cat. # 1620147), pre‐divided into uniform circular grids, and allowed to dry for 10 min at room temperature. The membrane was blocked for 1 h with 5% bovine serum albumin (BSA) in 1× Tris‐buffered saline with 0.05% Tween® 20 (TBST), followed by 3× washes with TBST. The membrane was then incubated for 1 h with anti‐α‐Synuclein (D37A6) rabbit monoclonal antibody (Cell Signaling Technology, Inc., Danvers, MA, USA, Cat. # 4179, RRID: AB_1904156), which recognizes an epitope surrounding Glu105 in the C‐terminal region of αSyn, and was used at a 1 : 2000 dilution in 5% BSA/TBST. After 3× washes with TBST, the blot was incubated with Alexa Fluor™ 647 Goat anti‐Rabbit IgG (Thermo Fisher Scientific; Cat. # A‐21245) at a 1 : 5000 dilution for 1 h. The blot was imaged using the ChemiDoc MP imaging system (Bio‐Rad), and densitometry was performed using IMAGEJ.

As to KISVRV, in series [1], the “effect on preformed αSyn oligomers” value was “dissolve preformed oligomers” and the “effect on αSyn fibril formation” value is listed as “inhibit αSyn fibril formation”.

Turning to KISVRVRRRRRR [PB], the “reduction of seed competency of αSyn fibrils, ranking” value in series [2] is “most effective”.

Regarding “NAC35: peptide of the entire NAC domain, corresponding to αSyn 61–95”, in series [3] (acidic (pH 4.5 in legend, pH 4.2 in method) vs pH 7.2, 37 °C), the “lag time at acidic pH compared with neutral pH” value was “shortened the lag time”. The “lag time at basic pH compared with neutral pH” value in series [3] (pH 8.0 vs pH 7.2, 37 °C) is given as “increased it”. Further, the “aggregation (ThT kinetics)” value in series [4] (100 μM peptide, 15 μM ThT, 1× PBS pH 7.2, 37 °C, 1000 rpm, 48–72 h, ThT fluorescence, n = 3) is recorded as “readily underwent aggregation”. Moreover, the “aggregate morphology (AFM and TEM)” value in series [4] (after 48 h of aggregation) was “elongated fibrils with clumped tangles”. In series [4] (summary table), the “Key observations: fibril formation and stability” value is recorded as “forms robust fibrils with enhanced stability”; the “Key observations: nucleation” value was “Slow nucleation”. For the same substance, the “solubility: UV–Vis absorption of soluble and insoluble fractions” value in series [5] was “clear increase in absorbance in the insoluble fraction”. Moreover, the “seeding of αSyn aggregation (effect on lag time) in words” value in series [6] (100 μM αSyn + 25 μM preformed fibrils, ThT) is recorded as “significantly shortened the lag time”. The “αSyn dimerization (dimer-to-monomer band ratio, Coomassie gel)” value in series [6] (insoluble fractions of seeded αSyn, n = 2) is given as “significantly increased αSyn dimerization”. Besides, in series [6] (summary table), the “Key observations: seeding of αSyn aggregation” value was “effective seeding of αSyn aggregation”. In series [6] (αSyn aggregated for 72 h with preformed fibrils, n = 3), the “insoluble fraction of seeded αSyn (dot blot)” value is “increased insoluble fractions”.
